The results in this text go back to US11162124B2, “Alcohol dehydrogenase mutant and application thereof in cofactor regeneration” (Jiangnan University, priority 2018, dated 2021).

One data set deals with OCCCCO. Briefly: purified protein, by the assay type. The note with it: Gly-NaOH pH 9.5, 30° C.
Data set [1] has as its target T1, alcohol dehydrogenase KpADH mutant M3 (Y127M; parent SEQ ID No. 1) (Vanderwaltozyma polyspora, UniProt A7TM80, Y127M).
T1 sequence (A7TM80 1-342 Y127M): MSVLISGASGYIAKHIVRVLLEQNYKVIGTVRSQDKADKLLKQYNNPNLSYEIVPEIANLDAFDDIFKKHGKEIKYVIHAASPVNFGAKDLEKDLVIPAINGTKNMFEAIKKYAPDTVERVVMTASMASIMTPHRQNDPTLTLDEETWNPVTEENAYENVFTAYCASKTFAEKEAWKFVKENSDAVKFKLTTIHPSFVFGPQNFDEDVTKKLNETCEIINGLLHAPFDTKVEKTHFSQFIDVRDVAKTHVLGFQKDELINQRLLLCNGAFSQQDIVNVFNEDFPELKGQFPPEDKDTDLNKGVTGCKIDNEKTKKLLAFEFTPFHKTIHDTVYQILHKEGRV
The experiment in a line: Kinetic analysis of KpADH mutant M3 toward diol co-substrates. Format: biochemical. The note with it: mutant M3 relative to wild-type KpADH. The method, then:
(§1) M3 is obtained by mutating tyrosine at position 127 into methionine in alcohol dehydrogenase having an original amino acid sequence as set forth in SEQ ID No. 1;
(§2) Changes in absorbance at 340 nm are measured.
(§3) The enzyme activity is calculated using the following formula: Enzyme activity (U)=EW×V×10^3/(6220×I);
(§4) In the formula, EW is the change in absorbance at 340 nm in 1 min; V is the volume of the reaction solution in mL; 6220 is the molar extinction coefficient of NAD(P)H in L/(mol·cm); I is optical distance in cm.
(§5) One unit of activity (U) corresponds to the amount of enzyme required for the catalytic oxidation of 1 μmol NADP^+ per minute under the above conditions.
(§6) Kinetic measurement is conducted according to the enzyme activity assay, with 10 μL of alcohol substrates of different concentrations, 1 mM NADP^+, 10 μL of enzymes of appropriate concentrations, 170 μL of glycine-sodium hydroxide buffer at pH 9.5, with each sample in triplicate. […] The calculation formulas are as follows: […]
(§7) The Vmax and Km values can be calculated from the intercepts of the double reciprocal plot on the X and Y axes;
(§8) The kcat value can be further calculated according to the formula.
(§9) The activity of KpADH under different substrate concentrations and cofactor concentrations was measured, and a double reciprocal plot was made according to the reciprocals of the activity and substrate concentration. The kinetic parameters were calculated.
(§10) The activity of KpADH under different substrate concentrations and cofactor concentrations was measured, and a double reciprocal plots were made according to the reciprocals of the activity and substrate concentration. The kinetic parameters were calculated.

For data set [2], the target named is T2, alcohol dehydrogenase KpADH mutant M5 (V84I/Y127M; parent SEQ ID No. 1) (Vanderwaltozyma polyspora, UniProt A7TM80, V84I/Y127M).
T2 sequence (A7TM80 1-342 V84I/Y127M): T1 sequence (A7TM80 1-342 Y127M) with V84I
Briefly: Kinetic analysis of KpADH mutant M5 toward diol co-substrates. Format: biochemical. Conditions: mutant M5 relative to wild-type KpADH. Here is the method: (§11) the M5 is obtained by mutating valine at position 84 into isoleucine and tyrosine at position 127 into methionine in alcohol dehydrogenase having an original amino acid sequence as set forth in SEQ ID No. 1.
as §2, §3, §4, §5, §6, §7, §8, §9, §10

Data set [3] deals with alcohol dehydrogenase KpADH, wild type, SEQ ID No. 1 (Vanderwaltozyma polyspora, UniProt A7TM80). The experiment in a line: Kinetic analysis of wild-type KpADH toward diol co-substrates. Format: biochemical. The note with it: 1 mM NADP+, Gly-NaOH pH 9.5, 30° C. Here is the method:
as §2, §3, §4
One unit of activity (U) corresponds to the amount of enzyme required for the catalytic oxidation of 1 μmol NADP^+ per minute under the above conditions. […]
as §7, §8, §9, §10

Substrate in data set [4]: OCCCCO
The experiment in a line: purified protein, by the assay type. Conditions: other: wild-type KpADH, 1 mM NADP+, Gly-NaOH pH 9.5, 30° C.

Substrate in data set [5]: OCCCCCO
Briefly: Kinetic analysis of wild-type KpADH toward diol co-substrates. The data set is classed as biochemical. Conditions: other: wild-type KpADH, 1 mM NADP+, Gly-NaOH pH 9.5, 30° C. Here is the method:
as §2, §3, §4, §5, §6, §7, §8, §9, §10

Substrate in data set [6]: OCCCCCO
The experiment in a line: Kinetic analysis of KpADH mutant M2 toward diol co-substrates. The data set is classed as biochemical. Conditions: other: mutant M2, 1 mM NADP+, Gly-NaOH pH 9.5, 30° C. Here is the method:
(§12) M2 is obtained by mutating tyrosine at position 127 into cysteine in alcohol dehydrogenase having an original amino acid sequence as set forth in SEQ ID No. 1;
as §2, §3, §4, §5, §6, §7, §8, §9, §10

Substrate in data set [7]: OCCCCCCO
The description is as above. The data set is classed as biochemical. The note with it: other: mutant M2, 1 mM NADP+, Gly-NaOH pH 9.5, 30° C. The method, then: as §12, §2, §3, §4, §5, §6, §7, §8, §9, §10

Substrate in data set [8]: OCCCCCO
The experiment in a line: Kinetic analysis of KpADH mutant M4 toward diol co-substrates. The note with it: other: mutant M4, 1 mM NADP+, Gly-NaOH pH 9.5, 30° C. The data set is classed as biochemical. Here is the method: (§13) M4 is obtained by mutating valine at position 84 into isoleucine and tyrosine at position 127 into cysteine in alcohol dehydrogenase having an original amino acid sequence as set forth in SEQ ID No. 1;
as §2, §3, §4, §5, §6, §7, §8, §9, §10

Substrate in data set [9]: OCCCCCCO
The data set is described as above. Conditions: other: mutant M4, 1 mM NADP+, Gly-NaOH pH 9.5, 30° C. The data set is classed as biochemical. Here is the method:
as §13, §2, §3, §4, §5, §6, §7, §8, §9, §10

Substrate in data set [10]: OCCCCCO
The experiment in a line: Kinetic analysis of KpADH mutant M5 toward diol co-substrates. Format: biochemical. The note with it: other: mutant M5, 1 mM NADP+, Gly-NaOH pH 9.5, 30° C. Here is the method:
as §11, §2, §3, §4, §5, §6, §7, §8, §9, §10

Substrate in data set [11]: OCCCCCCO
The description is as above. The data set is classed as biochemical. Conditions: other: mutant M5, 1 mM NADP+, Gly-NaOH pH 9.5, 30° C. The method, then: as §11, §2, §3, §4, §5, §6, §7, §8, §9, §10

Substrate in data set [12]: OCCCCCO
Briefly: Kinetic analysis of KpADH mutant M1 toward diol co-substrates. Format: biochemical. The note with it: other: mutant M1, 1 mM NADP+, Gly-NaOH pH 9.5, 30° C. The method, then: (§14) M1 is obtained by mutating valine at position 84 into isoleucine in alcohol dehydrogenase having an original amino acid sequence as set forth in SEQ ID No. 1;
as §2, §3, §4, §5, §6, §7, §8, §9, §10

Substrate in data set [13]: OCCCCCCO
The data set is described as above. Format: biochemical. The note with it: other: mutant M1, 1 mM NADP+, Gly-NaOH pH 9.5, 30° C. Here is the method:
as §14, §2, §3, §4, §5, §6, §7, §8, §9, §10

Substrate in data set [14]: OCCCCCO
Briefly: Kinetic analysis of KpADH mutant M3 toward diol co-substrates. Format: biochemical. The note with it: other: mutant M3, 1 mM NADP+, Gly-NaOH pH 9.5, 30° C. Here is the method:
as §1, §2, §3, §4, §5, §6, §7, §8, §9, §10

Substrate in data set [15]: OCCCCCCO
The data set is described as above. The data set is classed as biochemical. Conditions: other: mutant M3, 1 mM NADP+, Gly-NaOH pH 9.5, 30° C. Here is the method: as §1, §2, §3, §4, §5, §6, §7, §8, §9, §10

Changes are numbered by the printed parent chain. Names and notes keep the numbering of the source.

With “alcohol dehydrogenase KpADH mutant M3 (Y127M; parent SEQ ID No. 1) (Vanderwaltozyma polyspora DSM 70294; Y127M)”, in the data set on OCCCCO (other: mutant M3, 1 mM NADP+), the Km turned out to be 12.1 ± 0.9 mM, the kcat is 0.28 s⁻¹ and the kcat/Km turned out to be 23.2 M⁻¹ s⁻¹.

“alcohol dehydrogenase KpADH mutant M2 (Y127C; parent SEQ ID No. 1) (Vanderwaltozyma polyspora DSM 70294; Y127C)”: in the data set with OCCCCO (other: mutant M2, 1 mM NADP+), the Km was 38.1 ± 1.9 mM, the kcat turned out to be 0.463 s⁻¹ and the kcat/Km worked out at 12.2 M⁻¹ s⁻¹.

For the molecule `OCCCCCO` [1,5-pentanediol], the “catalytic efficiency kcat/Km, times that of wild-type KpADH” value in data set [1] came out at 4.36 times. Besides, in data set [2], the “kcat/Km value, times that of wild-type KpADH” value was found to be 3.14 times.

As to “alcohol dehydrogenase KpADH mutant M5 (V84I/Y127M; parent SEQ ID No. 1) (Vanderwaltozyma polyspora DSM 70294; V84I/Y127M)”, in the data set on OCCCCO (other: mutant M5, 1 mM NADP+), the Km is on record as 11.3 ± 0.8 mM, the kcat was 0.378 s⁻¹ and the kcat/Km stood at 33.5 M⁻¹ s⁻¹.

Turning to `OCCCCCCO` [1,6-hexanediol], the “catalytic efficiency kcat/Km, times that of wild-type KpADH” value in [1] stood at 2.69 times. Moreover, in data set [2], the “kcat/Km value, times that of wild-type KpADH” value is on record as 5.3 times. Further, in data set [3], the Km came out at 18.5 ± 1.5 mM and the kcat came to 0.698 ± 0.015 s⁻¹.

Turning to “alcohol dehydrogenase KpADH mutant M4 (V84I/Y127C; parent SEQ ID No. 1) (Vanderwaltozyma polyspora DSM 70294; V84I/Y127C)”, in the data set on OCCCCO (other: mutant M4, 1 mM NADP+), the Km is 30.4 ± 1.3 mM, the kcat is 0.652 s⁻¹ and the kcat/Km was 21.4 M⁻¹ s⁻¹.

B1: alcohol dehydrogenase KpADH, wild type, SEQ ID No. 1 (Vanderwaltozyma polyspora DSM 70294) (protein)
chain: T1 sequence (A7TM80 1-342 Y127M) with M127Y
For the molecule B1, in data set [4], the Km was determined as 75.6 ± 0.4 mM, the kcat turned out to be 0.173 s⁻¹ and the kcat/Km stood at 2.28 M⁻¹ s⁻¹. In data set [5], the Km turned out to be 74.4 ± 2.2 mM, the kcat amounted to 0.928 ± 0.0167 s⁻¹ and the kcat/Km amounted to 12.5 M⁻¹ s⁻¹.

B2: alcohol dehydrogenase KpADH mutant M2 (Y127C; parent SEQ ID No. 1) (Vanderwaltozyma polyspora DSM 70294; Y127C) (protein)
chain: T1 sequence (A7TM80 1-342 Y127M) with M127C
For the molecule B2, in [6], the Km amounted to 63.5 ± 0.1 mM, the kcat turned out to be 0.418 ± 0.015 s⁻¹ and the kcat/Km was 6.6 M⁻¹ s⁻¹. Further, in [7], the Km is 31.8 ± 1.7 mM, the kcat stood at 0.603 ± 0.0367 s⁻¹ and the kcat/Km worked out at 18.97 M⁻¹ s⁻¹.

B3: alcohol dehydrogenase KpADH mutant M4 (V84I/Y127C; parent SEQ ID No. 1) (Vanderwaltozyma polyspora DSM 70294; V84I/Y127C) (protein)
chain: T1 sequence (A7TM80 1-342 Y127M) with V84I, M127C
As for B3, in data set [8], the Km came to 16.3 ± 0.8 mM, the turnover number (kcat) amounted to 0.413 ± 0.0183 s⁻¹ and the kcat/Km amounted to 25.35 M⁻¹ s⁻¹. Besides, in [9], the Km turned out to be 12.9 ± 1.3 mM, the kcat was 1.64 ± 0.0417 s⁻¹ and the kcat/Km came out at 127.2 M⁻¹ s⁻¹.

B4: alcohol dehydrogenase KpADH mutant M5 (V84I/Y127M; parent SEQ ID No. 1) (Vanderwaltozyma polyspora DSM 70294; V84I/Y127M) (protein)
chain: T1 sequence (A7TM80 1-342 Y127M) with V84I
As to B4, in [10], the Km stood at 8.21 ± 0.22 mM, the kcat was 0.322 ± 0.015 s⁻¹ and the kcat/Km came out at 39.22 M⁻¹ s⁻¹. In addition, in [11], the Km is given as 6.52 ± 1.0 mM, the kcat was found to be 1.25 ± 0.035 s⁻¹ and the kcat/Km was found to be 200.53 M⁻¹ s⁻¹.

B5: alcohol dehydrogenase KpADH mutant M1 (V84I; parent SEQ ID No. 1) (Vanderwaltozyma polyspora DSM 70294; V84I) (protein)
chain: T1 sequence (A7TM80 1-342 Y127M) with V84I, M127Y
As to B5, in data set [12], the Km turned out to be 42.5 ± 1.5 mM, the kcat was determined as 0.852 ± 0.013 s⁻¹ and the kcat/Km was 20.03 M⁻¹ s⁻¹. Besides, in data set [13], the Km is 12.3 ± 0.7 mM, the kcat stood at 1.08 ± 0.0283 s⁻¹ and the kcat/Km worked out at 87.53 M⁻¹ s⁻¹.

B6: alcohol dehydrogenase KpADH mutant M3 (Y127M; parent SEQ ID No. 1) (Vanderwaltozyma polyspora DSM 70294; Y127M) (protein)
chain: T1 sequence (A7TM80 1-342 Y127M)
Turning to B6, in data set [14], the Km amounted to 14.3 ± 0.9 mM, the kcat was determined as 0.777 ± 0.0283 s⁻¹ and the kcat/Km was 54.48 M⁻¹ s⁻¹. Further, in data set [15], the Km worked out at 6.48 ± 0.45 mM, the kcat worked out at 0.658 ± 0.0317 s⁻¹ and the kcat/Km was 101.6 M⁻¹ s⁻¹.
